Assay results taken from US20210130420A1, “RECOMBINANT BINDING PROTEINS TARGETING HER2 AND SERUM ALBUMIN, AND THEIR USES” (Molecular Partners AG, priority 2016, published 2021).

Tests used:
[1] = biological target: extracellular domains of HER3 (Homo sapiens, UniProt P21860); assay: Surface plasmon resonance interaction with HER3; format: binding
[2] = system: SKBR-3, SKOV-3, NCI-N87, ZR-75-30, HCC1419, or MDA-MB175; assay: Proliferation inhibition on a variety of cancer cell-lines; format: cell-based
[3] = system: SKBR-3, SKOV-3, NCI-N87, ZR-75-30, HCC1419, or MDA-MB175; assay: Induction of apoptosis in further cell lines; format: cell-based
[4] = system: GXA3039; assay: Gastric cancer patient derived tumor xenograft mouse model GXA3039; format: in vivo; details: Protein #21 60 mg/kg, antibodies 10 mg/kg, every three days for 6 times
Experimental: Further, Protein #21 was expressed and purified as described in Example 1. […] All groups were dosed every three days for 6 times. Briefly, tumor fragments were obtained from xenografts in serial passage in nude mice. After removal from donor mice, tumors were cut into fragments (4-5 mm diameter) for subcutaneous implantation. Mice were randomized into groups when tumors reached a volume of approximately 100-120 mm^3. The day of randomization and treatment initiation is designated as day 0 in each experiment. Tumor growth was monitored by two-dimensional measurement with a caliper on the day of randomization and then twice weekly. Relative volumes of individual tumors (individual RTVs) for Day x were calculated by dividing the individual tumor volume on Day x (Tx) by the individual volume of the same tumor on Day 0 (TO) multiplied by 100%. Tumor inhibition for a particular day (T/C in %) was calculated from the ratio of the median RTV values of test versus control groups multiplied by 100%.

[5] = system: MAPK1 and MAPK3; assay: Phospho-proteome mass spectrometry; format: cell-based; details: 100 nM, 18 hours
Source text: Protein #21 was expressed and purified as described in Example 1. […] Cells were then subjected to a phospho-proteome mass-spectrometry analysis as described by Britton, D., et al. (Britton, D., Zen, Y., Quaglia, A., Selzer, S., Mitra, VI., Lössner, C., Jung, S., Bohm, G., Schmid, P., Prefot, P., Hoehle, C., Koncarevic, S., Gee, J., Nicholson, R., Ward, M., Castellano, L., Stebbing, J., Zucht, H. D., Sarker, D., Heaton, N., and Pike, I., 2014. PLOS One 9 (3), e90948). […] At other phosphorylation sites, phosphorylation is increased (772).

[6] = system: AKT; assay: Phospho-site specific ELISA, BT474 cells; format: cell-based, human; details: 100 nM, 18 hours
[7] = system: HER3; assay: Phosphorylation state ELISA, BT474 cells; format: cell-based, human; details: 100 nM, 18 hours
[8] = system: Foxo3a protein; assay: Cellular levels of Foxo3a protein in BT474 cells; format: cell-based, human; details: compared to an exposure to PBS only
Source text: (§1) Protein #21 was expressed and purified as described in Example 1. […] Cells were then subjected to a phospho-proteome mass-spectrometry analysis as described by Britton, D., et al. (Britton, D., Zen, Y., Quaglia, A., Selzer, S., Mitra, VI., Lössner, C., Jung, S., Bohm, G., Schmid, P., Prefot, P., Hoehle, C., Koncarevic, S., Gee, J., Nicholson, R., Ward, M., Castellano, L., Stebbing, J., Zucht, H. D., Sarker, D., Heaton, N., and Pike, I., 2014. PLOS One 9 (3), e90948).
(§2) It is known to the practitioner in the art, that Akt1 phosphorylates Foxo3a, resulting in the degradation of Foxo3a and promotion of cell survival. Inhibition of Act phosphorylation leads to stabilization of Foxo3a and thus increase in Foxo3a levels. At increased levels Foxo3a can translocate to the nucleus and induce apoptosis.

[9] = system: Foxo3a protein; assay: Cellular levels of Foxo3a protein in NCI-N87 cells; format: cell-based; details: compared to an exposure to PBS only
Source text: as §1, §2

[10] = biological target: HER2 (Homo sapiens, UniProt P04626); assay: Phosphorylation state ELISA, BT474 cells; format: cell-based; design: BT474 cells were treated for 18 hours with either Protein #21 (100 nM); host or cells: BT474; details: 100 nM, 18 hours

interaction with extracellular domains of HER3 [1]: does not interact | HER2 Pan-Phospho-Tyrosine [10]: 0.04 fold change to PBS
B1: Protein #21: SEQ ID NO: 21; HER2 binding domains (SEQ ID NOs: 16, 17) flanked by two serum albumin binding domains (SEQ ID NO: 14), SEQ ID NO: 9 linkers (protein)
chain: GSDLGKKLLEAARAGQDDEVRELLKAGADVNAKDYFSHTPLHLAARNGHLKIVEVLLKAGADVNAKDFAGKTPLHLAANEGHLEIVEVLLKAGADVNAQDIFGKTPADIAADAGHEDIAEVLQKAAGSPTPTPTTPTPTPTTPTPTPTGSDLGIKLLFAAAKGQDDEVRELLKAGADVNAKDFQGVTPLHIAAQSGHLEIVEVLLKAGADVNAKDVTGDTPLHLAAQHGHLEIVEVLLKAGADVNAQDERGWTPADLAADWGHEDIAEVLQKAAGSPTPTPTTPTPTPTTPTPTPTGSDLGKKLLEAARAGQDDEVRELLKAGADVNAKDEYGLTPLYLATAHGHLEIVEVLLKAGADVNAVDAIGFTPLHLAAFIGHLEIAEVLLKAGADVNAQDKFGKTPADIAAGAGNEDIAEVLQKAAGSPTPTPTTPTPTPTTPTPTPTGSDLGKKLLEAARAGQDDEVRELLKAGADVNAKDYFSHTPLHLAARNGHLKIVEVLLKAGADVNAKDFAGKTPLHLAANEGHLEIVEVLLKAGADVNAQDIFGKTPADIAADAGHEDIAEVLQKAA
modifications: Protein comprising four designed ankyrin repeat domains
proliferation inhibition on cancer cell-lines [2]: strong proliferation inhibition | potency in inducing apoptosis in further cell lines [3]: high potency in inducing apoptosis | inhibition of tumor growth, first experiment ([4]; GXA3039, FIG. 4C): strong inhibition of tumor growth | inhibition of tumor growth, second experiment ([4]; GXA3039, FIG. 4D): strong inhibition of tumor growth | phosphorylated peptides that map to MAPK1 and MAPK3 [5]: considerably downregulated | AKT S473 phosphorylation [6]: 0.16 fold change to PBS | HER3 Pan-Phospho-Tyrosine [7]: 0.45 fold change to PBS | increase of cellular levels of Foxo3a protein [8]: 1.88 fold | increase of cellular levels of Foxo3a protein [9]: 2.8 fold
